Patent publication US20250115663A1 (CELLDEX THERAPEUTICS, published 2025)

Legend:
[1] = molecular target: T1, soluble human CD40-MsIgG2a (human, UniProt P25942); assay: BLI (Octet QKe), antibody captured on anti-human Fc (AHC) biosensors, analyte soluble human CD40-MsIgG2a 3.13 to 0.098 nM, 25 C, 1:1 fit
T1 construct: soluble, fused to mouse IgG2a; also called recombinant human CD40-msG2a chimeric protein; CD40-MsIgG2a (Celldex, 60 kD by SDS-PAGE)
Description: (§1) Purified antibodies from Example 1 were captured on Anti-Human Fc Capture (AHC) biosensors (Fortebio Product No. 18-5060). Each antibody was prepared in dilution buffer (10mMPO4+150 mM NaCl+1 mg/mL BSA+0.5% Tween 20, pH 7.2) to 0.5 μg/mL and loaded on freshly hydrated AHC biosensors for 35-50 sec at 25° C. and 1000 rpm plate shake speed to achieve a target response of 0.2 nm. Low levels of ligand were captured to limit any effects of mass transport of analyte on kinetic parameters. For one assay, eight biosensors were loaded with the same antibody.
(§2) Binding was determined by exposing six of the antibody loaded biosensors to analyte: soluble human CD40-MsIgG2a (Celldex, 60 kD by SDS-PAGE). Affinity measurements were determined using 2-fold serial dilutions of analyte ranging from 3.13 to 0.098 nM in dilution buffer at 25° C. and 1000 rpm plate shake speed. Association of the antibody loaded biosensors in analyte wells was carried out for 1200 seconds, the biosensors were then moved to dilution buffer wells for 2.5 hrs (9000 sec) for dissociation measurements.
(§3) Fortebio's Data Analysis Software version 8.2.0.7 (Pall ForteBio, Menlo Park, CA) was used in each case to derive kinetic parameters from the concentration series of analyte in dilution buffer binding to captured antibody. The association and dissociation curves were fitted to a 1:1 binding model using the data analysis software according to the manufacturer's guidelines.

[2] = molecular target: T1, soluble human CD40-MsIgG2a; assay: BLI (Octet QKe), antibody captured on anti-human Fc (AHC) biosensors, analyte soluble human CD40-MsIgG2a 3.13 to 0.098 nM, 25 C, 1:1 fit; column head kdis(1/s)
Description: as §1, §2, §3

[3] = molecular target: T2, recombinant human CD40-Fc (human, UniProt P25942 21-193); assay: ELISA on coated recombinant human CD40-Fc, detection anti-human IgG F(ab')2-HRP, OD 450-650 (the y axis is labelled 'Median Fluorescence')
T2 construct: also called soluble recombinant human CD40/Fc chimera from R&D Systems; not shown: The antibody Fc domain of the R&D Systems chimera and any linker to it
T2 sequence (P25942 21-193 limits assumed, form in doubt): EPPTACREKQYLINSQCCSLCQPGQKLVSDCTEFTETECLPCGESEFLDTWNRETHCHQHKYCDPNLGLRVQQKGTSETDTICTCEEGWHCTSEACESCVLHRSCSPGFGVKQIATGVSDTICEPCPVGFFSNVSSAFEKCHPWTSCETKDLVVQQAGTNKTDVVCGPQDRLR
Description: (§4) Microtiter plates were coated with recombinant human CD40-Fc in PBS, and then blocked with 5% bovine serum albumin in PBS. Protein A purified human mAbs from Example 1 and an isotype control were added at various concentrations and incubated at 37° C. The plates were washed with PBS/Tween and then incubated with a goat-anti-human IgG F(ab′)2-specific polyclonal reagent conjugated to horseradish peroxidase at 37° C. After washing, the plates were developed with HRP substrate, and analyzed at OD 450-650 using a microtiter plate reader.

[4] = molecular target: T2, recombinant human CD40-Fc; assay: ELISA on coated recombinant human CD40-Fc, detection anti-human IgG F(ab')2-HRP, OD 450-650
Description: as §4, with “Protein A purified human mAbs from Example 1 and an isotype control were added at various concentrations and incubated at 37° C.” left out

T1 sequence (P25942 21-193 limits assumed): as the sequence (P25942 21-193 limits assumed, form in doubt) above

Binder	Kd [1]	kon [1]	koff [2]	EC50 (read off the curve) [3]	EC50 (read off the curve) [4]
anti-CD40 human monoclonal antibody 3B6 (antibody, human IgG2, V domains shown, Human IgG2) VH: EVQLLESGGGLVQPGGSLRLSCAASGFTFSSYAMSWVRQAPGKGLEWVSGITGTGGSTYYADSVKGRFTISRDNSKNTLYVQMNSLRAEDTAVYYCAKRAGGSFYYYYGMDVWGQGTTVTVSS VL: DIVMTQSPLSLPVTPGEPASISCRSSQSLLHSTGYNYLDWYLQKPGQSPQLLIYLGSNRASGVPDRFNGSGSGTDFTLKISRVEAEDFGVYYCMQALQTPWTFGHGTKVEIK	7.9 pM	782000 M⁻¹ s⁻¹	6.14e-06 s⁻¹	–	–
anti-CD40 human monoclonal antibody 6H6 (antibody, human IgG2, V domains shown, Human IgG2) VH: QVQLVESGGGVVQPGRSLRFSCAASGFTLSSYGMHWVRQAPGKGLEWVAVIWDDGSNKYYADSVKGRFTISRDNSKNTLYLQMNSLRAEDTAVYYCARAGGSGRYYNYFDYWGQGTLVTVSS VL: EIVMTQSPATLSVSPGERATLSCRASQSVRSNLAWYQQKPGQAPRLLIYGASTRATGIPARFSGSGSGTDFTLTISSLQSEDFAVYYCQQHNNWLTFGGGTKVEIK	2.8 pM	905000 M⁻¹ s⁻¹	2.49e-06 s⁻¹	–	–
anti-CD40 human monoclonal antibody 1B5-NK (antibody, human IgG2, V domains shown, Human IgG2) VH: QVQLVESGGGVVQPGRSLRLSCAASGFTFSSFGMHWVRQAPGKGLEWVTLIWFDGSSKYYADSVKGRFTISRDNSKNTLYLQMNSLRAEDTAVYYCVRGFAAVAGWYFDFWGRGTLVTVSS VL: DIQMTQSPSSLSASVGDRVTITCRASQGVRKYLAWYQQKPGKVPKLLIYAASTLQSGVPSRFSGSGSGTDFTLTISSLQPEDVATYYCQKYFSAPYTFGQGTKLEIK	–	–	–	~0.09 µg/mL	–
F(ab')2 fragment of antibody 3C3 (other, F(ab')2 version of the IgG2 antibody, lacking the Fc domain; also called 3C3 F(ab')2) VH: QVQLVESGGGVVQPGRSLRLSCAGSGFIFSRYGMYWVRQAPGKGLEWVAVIWYDGSYKYYADSVKGRFTISRDNSKNTLYLQMNSLRAEDTAVYYCARESPWYYFDYWGQGTLVTVSS VL: DIQMTQSPSSLSASVGDRVTITCRASQGISNYLAWYQQKPGKVPKLLIYAASTLQSGVPSRFSGSGSGTDFTLTISSLQPEDVATYYCQKYKSAPFTFGPGTKVDIK	–	–	–	–	~400 pM
F(ab')2 fragment of antibody 3G5 (other, F(ab')2 version of the IgG2 antibody, lacking the Fc domain; also called 3G5 F(ab')2) VH: QVQLVESGGGVVQPGKSLRLSCAASGFTFSSNGIHWVRQAPGKGLEWVAVIWSDGSNKFYADSVKGRFTISRDNSKNTLYLQMNSLRAEDTAVYYCARASGSGSYYNFFDYWGQGTLVTVSS VL: EIVMTQSPATLSVSPGERATLSCRASQSVRSNLAWYQQKPGQAPRLLIYGASTRATGIPARFSGSGSGTEFTLTINSLQSEDFAVYYCQQHNKWITFGQGTRLEIK	–	–	–	–	~300 pM
anti-CD40 human monoclonal antibody 1B4 (antibody, human IgG2, V domains shown, Human IgG2) VH: EVQLLESGGGLVQPGGSLRLSCAASGFTFSSYAMTWVRQVPGKGLEWVSGITGSGANTFYTDSVKGRFTISRDNSNNSLYLQMNSLRADDTAVYYCAKRNGGSYYYYYGMDVWGQGTTVTVSS VL: not shown	10.5 pM	832000 M⁻¹ s⁻¹	8.76e-06 s⁻¹	–	–
